In US20250361274A1, “PEPTIDE AND PEPTIDE-CONTAINING AGENT” (PEPTIDREAM INC., priority 2022, published 2025):
Like-named read-outs stand apart in the source and are kept apart here. Numbered stars: 1 amine (or outer) side, 2 acyl side, 3 side chain; on linkers, the order of the positions; unused ones are H or OH. Bridge positions count the residues as written; N and C are the ends. Square brackets hold non-standard residues; d marks the D form. Ends that are not written are not given here. KCOpipzaa = N6-(4-(carboxymethyl)piperazine-1-carbonyl)-L-lysine, O=C(NCCCC[C@H](N[*:1])C(=O)[*:2])N1CCN(CC(=O)[*:3])CC1; Phe(4-(3-Py)) = N[C@@H](Cc1ccc(-c2cccnc2)cc1)C(=O)O; Phe(4-COOH) = N[C@@H](Cc1ccc(C(=O)O)cc1)C(=O)O; Bip = N[C@@H](Cc1ccc(-c2ccccc2)cc1)C(=O)O; Phe(4-F) = N[C@@H](Cc1ccc(F)cc1)C(=O)O; NMeF = CN[C@@H](Cc1ccccc1)C(=O)O; 4Pal = N[C@@H](Cc1ccncc1)C(=O)O; Cha = N[C@@H](CC1CCCCC1)C(=O)O; Ahp(2) = CCCCC[C@H](N)C(=O)O; βAla = NCCC(=O)O

Assays:
BMP4 [1] = target: T1, BMP4 (UniProt P12644 293-408); assay: cell-based or functional assay
T1 sequence (looked up): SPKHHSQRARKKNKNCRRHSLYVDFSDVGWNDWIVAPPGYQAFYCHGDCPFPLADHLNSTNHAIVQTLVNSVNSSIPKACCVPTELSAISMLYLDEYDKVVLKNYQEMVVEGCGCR

BMP7 [2] = target: T2, BMP7 (UniProt P18075 293-431); assay: cell-based or functional assay
T2 sequence (looked up): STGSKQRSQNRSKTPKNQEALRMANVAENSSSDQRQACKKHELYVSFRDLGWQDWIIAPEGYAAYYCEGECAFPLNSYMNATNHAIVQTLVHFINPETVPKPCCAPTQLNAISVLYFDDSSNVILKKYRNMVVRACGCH

BMP4 [3] = target: T1, BMP4; assay: cell-based or functional assay; remark: listed apart in the source
BMP7 [4] = target: T2, BMP7; assay: cell-based or functional assay; remark: listed apart in the source
BMP4 [5] = target: T3, BMP4 (Homo sapiens, UniProt P12644); assay: BMP4 signal transduction inhibitory activity: SMAD1 phosphorylation by BMP4 stimulus, AlphaLISA SureFire, A549 cells; type: cell-based; details: for aLISA BMP4: inhibition of SMAD1 phosphorylation by BMP4 stimulus, A549 cells; for aLISA BMP4 (0.2 nM) % inh: SMAD1 phosphorylation, peptide conc. in assay 0.2, 2, 20 nM
T3 sequence (P12644 293-408): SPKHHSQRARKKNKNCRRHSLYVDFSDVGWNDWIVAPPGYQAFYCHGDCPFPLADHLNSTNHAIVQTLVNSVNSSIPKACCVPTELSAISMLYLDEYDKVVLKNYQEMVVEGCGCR

BMP7 [6] = target: T4, BMP7 (Homo sapiens, UniProt P18075); assay: BMP7 signal transduction inhibitory activity: SMAD1 phosphorylation by BMP7 stimulus, A549 cells; type: cell-based; details: for aLISA BMP7: inhibition of SMAD1 phosphorylation by BMP7 stimulus, A549 cells; for aLISA BMP7 (10 nM) % inh: SMAD1 phosphorylation, peptide conc. in assay 1, 10, 100 nM
T4 sequence (P18075 293-431): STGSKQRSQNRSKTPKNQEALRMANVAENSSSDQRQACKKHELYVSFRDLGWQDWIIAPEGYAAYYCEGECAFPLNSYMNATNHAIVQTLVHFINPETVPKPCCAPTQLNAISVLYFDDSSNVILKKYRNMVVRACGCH
In short: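 SMAD1 phosphorylation readout in A549 cells stimulated with BMP7 (10 nM). Peptides were tested at three levels (e.g. 1/10/100, 10/100/1,000, 100/300/1,000, 10/30/90 nM) or at eight points, 1/3 steps, from 100 or 1,000 nM. Recombinant Noggin served as positive control at matching concentrations.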

[7] = AlphaLISA, class by peptide concentration zone

Row | Substance | aLISA BMP4 (BMP4 [5]; [7]) | aLISA BMP7 (BMP7 [6]; [7]) | aLISA BMP4 (0.2 nM) % inh (BMP4 [5]) | aLISA BMP7 (10 nM) % inh (BMP7 [6]) | other results
1 | recombinant Human Noggin Protein (R&D) (from UniProt Q13253 28-232) | – | – | – | – | IC50 (nM), SMAD1 phosphorylation in A549 cells (BMP4 [1]): 0.08 nM; IC50 (nM), SMAD1 phosphorylation in A549 cells (BMP7 [2]): 2.7 nM; IC50 (nM), SMAD1 phosphorylation in A549 cells (BMP4 [3]): 0.13 nM; IC50 (nM), SMAD1 phosphorylation in A549 cells (BMP7 [4]): 5.74 nM
2 | 53 (Ac-ERVYVDR[Bip]PYP[Bip]Y[Phe(4-COOH)][Phe(4-COOH)]SCG-NH2; thioether (positions not given here); not fully specified (bridges)) [compound 53] | A (showed an inhibitory activity of 50% or more in a zone to which the peptide was added to in an amount of 0.2 nM) | ND (the inhibitory activity was less than 30% at the maximum concentration evaluated) | – | – | –
3 | 345 (FG[NMeF]G[Bip]GDD[Cha]A[NMeF][Ahp(2)]HCG-NH2; not fully specified (N-terminus, bridges)) [compound 345] | – | – | A (showed less than 30% of inhibitory activity in 2 nM-peptide-addition zone and showed 30% or more of inhibitory activity in 20 nM-addition zone) | D (showed less than 30% of inhibitory activity in 10 nM-addition zone and showed 30% or more of inhibitory activity in 100 nM-addition zone) | –
4 | 124 ({CH2CO}-ERV[Phe(4-COOH)]V[KCOpipzaa]R[Bip]SYV[Bip]Y[Phe(4-COOH)][Phe(4-COOH)]SC[βAla][dE]-OH; thioether N-17; not fully specified) [compound 124] | – | – | – | – | aLISA BMP4 (BMP4 [5]; peptides of Synthesis 2, classes A-C, ND): A (showed an inhibitory activity of 50% or more in a zone to which the peptide was added to in an amount of 0.2 nM); aLISA BMP7 (BMP7 [6]; peptides of Synthesis 2, classes A-D, ND): C (showed less than 50% of inhibitory activity in 10 nM-addition zone and showed 50% or more of inhibitory activity in 100 nM-addition zone)
5 | 326 (FG[NMeF]G[Phe(4-(3-Py))]GDD[Cha]A[NMeF]LHCG-NH2; not fully specified) [compound 326] | – | – | ND (the inhibitory activity was less than 30% at the maximum concentration evaluated) | D (showed less than 30% of inhibitory activity in 10 nM-addition zone and showed 30% or more of inhibitory activity in 100 nM-addition zone) | –
6 | 72 ({CH2CO}-ERVYVDR[Bip]PYP[Bip][Phe(4-F)][Phe(4-COOH)][4Pal]SCG-NH2; thioether N-17; not fully specified) [compound 72] | A (showed an inhibitory activity of 50% or more in a zone to which the peptide was added to in an amount of 0.2 nM) | C (showed less than 50% of inhibitory activity in 10 nM-addition zone and showed 50% or more of inhibitory activity in 100 nM-addition zone) | – | – | –
